The assay deals with recombinant NetB (wild type NetB) toxin of C. perfringens (Clostridium perfringens). As to the kind of experiment: cell-based or functional assay.

“And” between values parts separate entries of the source, which are not always exact repeats. Equal entries are not always repeated.

B1: VHH ENB-1D11 (VHH)
VHH: EVQLVESGGGLVQTGGSLRLSCTASGTIDMTYGLIWYRQAPGKERELVASIRRDGRTNYADSVKGRFTISIDNAKNSIHLQMNSLKPDDTARYYCNSPYHALWGQGTQVTVSS
Take B1: the lowest VHH concentration neutralizing NetB haemolysis was 1.25 µM and 0.625 µM.

B2: VHH ENB-1A4 (VHH)
VHH: EVQLVESGGGLVQAGGSLRLSCAASGSIFSTNVMGWYRQAPGKQREFVAGITIGGTARYPDSVKGRFTISRDNTQNTVYLQMNNLKPEDTAVYYCNAVLPSDQRRWSWGQGTQVTVSS
With B2, the lowest VHH concentration neutralizing NetB haemolysis was 1.25 µM and 0.625 µM.

(Values after patent publication US20220127628A1.)
